Test results: publication PMC7352312

Tests used:
[1] = target: AcSpN A71R mutant (Nephila antipodiana) (Nephila antipodiana); assay: AUC; sedimentation velocity, 1.5 mg/mL protein, 20 mM phosphate, 300 mM NaCl, pH 7.0-8.0 (mutants and MaSpN at pH 7.0), 24 °C; self-association
[2] = target: AcSpN K103E mutant (Nephila antipodiana) (Nephila antipodiana); assay: AUC; sedimentation velocity, 1.5 mg/mL protein, 20 mM phosphate, 0 mM NaCl, pH 7.0-8.0 (mutants and MaSpN at pH 7.0), 24 °C; self-association
[3] = target: AcSpN K122E mutant (Nephila antipodiana) (Nephila antipodiana); assay: AUC; sedimentation velocity, 1.5 mg/mL protein, 20 mM phosphate, 150 mM NaCl, pH ≥ 7.0 (mutants and MaSpN at pH 7.0), 24 °C; self-association
[4] = target: AcSpN R107E mutant (Nephila antipodiana) (Nephila antipodiana); assay: AUC; sedimentation velocity, 1.5 mg/mL protein, 20 mM phosphate, 0 mM NaCl, pH 7.0-8.0 (mutants and MaSpN at pH 7.0), 24 °C; self-association
[5] = target: N-terminal domain of aciniform silk protein (AcSpN) from Nephila antipodiana, construct S15-E153 (renumbered S4-E142) (Nephila antipodiana); assay: AUC; sedimentation velocity, 1.5 mg/mL protein, 20 mM phosphate, 150 mM NaCl, pH < 7.0, 24 °C; self-association
[6] = target: N-terminal domain of aciniform silk protein (AcSpN) from Nephila antipodiana, construct S15-E153 (renumbered S4-E142) (Nephila antipodiana); assay: AUC; sedimentation velocity, 1.5 mg/mL protein, 20 mM phosphate, 300 mM NaCl, pH 5.85 and 5.50, 24 °C; self-association
[7] = target: N-terminal domain of aciniform silk protein (AcSpN) from Nephila antipodiana, construct S15-E153 (renumbered S4-E142) (Nephila antipodiana); assay: AUC; sedimentation velocity, 1.5 mg/mL protein, 20 mM phosphate, 150 mM NaCl, pH ≥ 7.0 (mutants and MaSpN at pH 7.0), 24 °C; self-association
[8] = target: N-terminal domain of major ampullate silk protein (MaSpN) from Nephila antipodiana, construct T1-E137 (Nephila antipodiana); assay: SEC; Superdex 200 Increase 10/300 GL, 20 mM sodium phosphate pH 7.0, 50 mM NaCl, ~600 µM protein injected; self-association
[9] = target: N-terminal domain of major ampullate silk protein (MaSpN) from Nephila antipodiana, construct T1-E137 (Nephila antipodiana); assay: AUC; sedimentation velocity, 1.5 mg/mL protein, 20 mM phosphate, 0 mM NaCl, pH 7.0-8.0 (mutants and MaSpN at pH 7.0), 24 °C; self-association

AcSpN A71R mutant (Nephila antipodiana) (domain or fragment)
percent in a dimeric form [1]: 10%

AcSpN K103E mutant (Nephila antipodiana) (domain or fragment)
stoichiometry N [2]: 2

AcSpN K122E mutant (Nephila antipodiana) (domain or fragment)
stoichiometry N [3]: 2

AcSpN R107E mutant (Nephila antipodiana) (domain or fragment)
stoichiometry N [4]: 2

N-terminal domain of aciniform silk protein (AcSpN) from Nephila antipodiana, construct S15-E153 (renumbered S4-E142) (domain or fragment)
stoichiometry N [5]: 2 | stoichiometry N [6]: 2 | stoichiometry N [7]: 2

N-terminal domain of major ampullate silk protein (MaSpN) from Nephila antipodiana, construct T1-E137 (domain or fragment)
stoichiometry N [8]: 2 | stoichiometry N [9]: 2
